Measurements: patent US20010010923A1, “MODIFIED CARBOXYPEPTIDASE” (priority 1997, published 2001)
Positions count from the first letter of the chain named. Names and notes keep the numbering of the source. “Also recorded” adds a separate entry of the source. Marks after values point to notes of the source that are not given here.

B1: T60Y: carboxypeptidase Y S1' mutant, substitution T60Y (protein, UniProt P00729 112-532, looked up, variant T60Y)
Carboxypeptidase Y: KIKDPKILGIDPNVTQYTGYLDVEDEDKHFFFWTFESRNDPAKDPVILWLNGGPGCSSLYGLFFELGPSSIGPDLKPIGNPYSWNSNATVIFLDQPVNVGFSYSGSSGVSNTVAAGKDVYNFLELFFDQFPEYVNKGQDFHIAGESYAGHYIPVFASEILSHKDRNFNLTSVLIGNGLTDPLTQYNYYEPMACGEGGEPSVLPSEECSAMEDSLERCLGLIESCYDSQSVWSCVPATIYCNNAQLAPYQRTGRNVYDIRKDCEGGNLCYPTLQDIDDYLNQDYVKEAVGAEVDHYESCNFDINRNFLFAGDWMKPYHTAVTDLLNQDLPILVYAGDKDFICNWLGNKAWTDVLPWKYDEEFASQKVRNWTASITDEVAGEVKSYKHFTYLRVFNGGHMVPFDVPENALSMVNEWIHGGFSL
B2: T60D: carboxypeptidase Y S1' mutant, substitution T60D (protein, UniProt P00729 112-532, looked up, variant T60D)
Carboxypeptidase Y: B1 Carboxypeptidase Y with Y60D
B3: T60D + M398L: carboxypeptidase Y double substitution mutant T60D + M398L (protein, UniProt P00729 112-532, looked up, variant T60D M398L)
Carboxypeptidase Y: B1 Carboxypeptidase Y with Y60D, M398L
B4: M398I: carboxypeptidase Y S1' mutant, substitution M398I (protein, UniProt P00729 112-532, looked up, variant M398I)
Carboxypeptidase Y: B1 Carboxypeptidase Y with Y60T, M398I
B5: M398V: carboxypeptidase Y S1' mutant, substitution M398V (protein, UniProt P00729 112-532, looked up, variant M398V)
Carboxypeptidase Y: B1 Carboxypeptidase Y with Y60T, M398V
B6: T60D + M398Y: carboxypeptidase Y double substitution mutant T60D + M398Y (protein, UniProt P00729 112-532, looked up, variant T60D M398Y)
Carboxypeptidase Y: B1 Carboxypeptidase Y with Y60D, M398Y
B7: M398A: carboxypeptidase Y S1' mutant, substitution M398A (protein, UniProt P00729 112-532, looked up, variant M398A)
Carboxypeptidase Y: B1 Carboxypeptidase Y with Y60T, M398A
B8: M398G: carboxypeptidase Y S1' mutant, substitution M398G (protein, UniProt P00729 112-532, looked up, variant M398G)
Carboxypeptidase Y: B1 Carboxypeptidase Y with Y60T, M398G
B9: T60Y + M398Y: carboxypeptidase Y double substitution mutant T60Y + M398Y (protein, UniProt P00729 112-532, looked up, variant T60Y M398Y)
Carboxypeptidase Y: B1 Carboxypeptidase Y with M398Y
B10: T60F: carboxypeptidase Y S1' mutant, substitution T60F (protein, UniProt P00729 112-532, looked up, variant T60F)
Carboxypeptidase Y: B1 Carboxypeptidase Y with Y60F
B11: T60Y + M398L: carboxypeptidase Y double substitution mutant T60Y + M398L (protein, UniProt P00729 112-532, looked up, variant T60Y M398L)
Carboxypeptidase Y: B1 Carboxypeptidase Y with M398L
B12: T60A + M398Y: carboxypeptidase Y double substitution mutant T60A + M398Y (protein, UniProt P00729 112-532, looked up, variant T60A M398Y)
Carboxypeptidase Y: B1 Carboxypeptidase Y with Y60A, M398Y
B13: T60A + M398L: carboxypeptidase Y double substitution mutant T60A + M398L (protein, UniProt P00729 112-532, looked up, variant T60A M398L)
Carboxypeptidase Y: B1 Carboxypeptidase Y with Y60A, M398L

Assays:
[1] = Transpeptidation of FA-Ala-OBzl with H-Leu-NH2, Table 3; assay type: biochemical; conditions: FA-Ala-OBzl 0.2 mM, pH 7.5; for fa: H-Leu-NH2; for KN(app): nucleophile H-Leu-NH2 concentration at which fa is half of maximum
Protocol: (§1) Transamidation reactions were carried out generally as described in PCT Application WO 95/20039. In general, the method included dissolving the nucleophile (H-Leu-NH2, unless otherwise indicated) in 50 mM HEPES, 5 mM EDTA and adjusting the pH to 7.5, 5 μl of peptide substrate (8 mM Bz-G-A-R-A-R-A-OH, unless otherwise indicated, in methanol) was added to 190 μl nucleophile solution followed by 5 μl enzyme, resulting in a substrate concentration of 0.2 mM.
(§2) During the reaction, 20 μl aliquots were removed from the reaction mixture and added to 50 μl 1% trifluoroacetic acid to quench the reaction. The reactant composition was determined by HPLC using a Waters HPLC equipped with a C-18 Waters Novapac 4μ reverse phase column and various gradients of acetonitrile in 0.1% trifluoroacetic acid. The separation was monitored at 254 nm allowing the direct quantification of the products from the integrated peak areas. The composition of the reaction mixture was determined at least twvice during the reaction, the first when 20-50% (preferably 35%) of the substrate had been consumed in the reaction and the second time when 50-90% (preferably 80%) of the peptide substrate had been consumed.
(§3) The fraction of aminolysis (fa) was expressed as the ratio between the formed aminolysis product and the sum of all products formed. Unconsumed substrate was disregarded in the calculations.
Site specific mutagenesis was performed as described in Example 1 to produce the specific substitution mutants described below. Transamidation reactions were performed as described for Example 1.
In table 3, below, KN(app) represents the nucleophile concentration at which fa is half of the maximum value (a measure for the dissociation constant of the nucleophile). famax is the highest possible fa obtained at saturation of the enzyme with the nucleophile.
KN(app) indicates the concentration at which famax/2 is reached and thus describes the apparent binding constant of the nucleophile. Because the competing hydrolysis reaction is thought to occur while the leaving group remains attached to the to the acyl-enzyme intermediate, a low KN(app) is preferred.

[2] = Transpeptidation of FA-Ala-Xaa-OH with H-Gly-NH2, Table 2; assay type: biochemical; conditions: for Fraction of aminolysis (fa), P1' Ala: FA-Ala-Ala-OH 0.2 mM; for Fraction of aminolysis (fa), P1' Ala / Fraction of aminolysis (fa), P1' Leu / Fraction of aminolysis (fa), P1' Met / Fraction of aminolysis (fa), P1' Phe / Fraction of aminolysis (fa), P1' Val: 1.9 M H-Gly-NH2, pH 7.5, room temperature; for Fraction of aminolysis (fa), P1' Leu: FA-Ala-Leu-OH 0.2 mM; for Fraction of aminolysis (fa), P1' Met: FA-Ala-Met-OH 0.2 mM; for Fraction of aminolysis (fa), P1' Phe: FA-Ala-Phe-OH 0.2 mM; for Fraction of aminolysis (fa), P1' Val: FA-Ala-Val-OH 0.2 mM; for fraction of aminolysis compared to wild type, in words: larger, hydrophobic leaving group such as leucine
Protocol: as §1, §2, §3
Site specific mutagenesis was performed as described for Example 1 to produce the S1 mutants used below.
Transamidation reactions were performed as described for Example 1.

Row | Molecule | fa [1] | Fraction of aminolysis (fa), P1' Ala [2] | Fraction of aminolysis (fa), P1' Leu [2] | Fraction of aminolysis (fa), P1' Met [2] | Fraction of aminolysis (fa), P1' Phe [2] | Fraction of aminolysis (fa), P1' Val [2] | fraction of aminolysis compared to wild type, in words [2] | KN(app) [1] | fraction of aminolysis compared to wild type, in words ([2]; listed as M3981)
1 | B1 | 0.95^a | 0.90 | 0.66 | 0.58 | 0.51 | 0.43 | improvement in fraction of aminolysis obtained; also recorded: most dramatic improvement; also recorded: most effective at increasing the fraction of aminolysis |  | 
2 | B2 | 0.94^a | 0.87 | 0.25 | 0.15 | 0.15 | 0.53 | improvement in fraction of aminolysis obtained | 1.5^c mM | 
3 | B3 | 1.0^a | 0.89 | 0.89 | 0.66 | 0.62 | 0.90 | further improved the fraction of aminolysis | 2.0^b mM | 
4 | B4 | 0.94^a | 0.93 | 0.91 | 0.83 | 0.75 | 0.87 | improvement in fraction of aminolysis obtained; also recorded: most dramatic improvement | 0.91^b mM | enhanced transpeptidation
5 | B5 | 0.87^a | 0.93 | 0.91 | 0.83 | 0.86 | 0.81 | improvement in fraction of aminolysis obtained; also recorded: most dramatic improvement; also recorded: enhanced transpeptidation | 1.43^b mM | 
6 | B6 | 0.89^a | 0.70 | 0.75 | 0.72 | 0.56 | 0.71 | further improved the fraction of aminolysis | 9.2^c mM | 
7 | B7 | 0.93^a | 0.93 | 0.84 | 0.89 | 0.84 | 0.65 | improvement in fraction of aminolysis obtained; also recorded: enhanced transpeptidation | 0.83^a mM | 
8 | B8 | 0.95^a | 0.93 | 0.59 | 0.83 | 0.66 | 0.42 | improvement in fraction of aminolysis obtained | 1.6^a mM | 
9 | B9 | 0.99^a | 0.74 | 0.77 | 0.76 | 0.75 | 0.74 | further improved the fraction of aminolysis | 5.4^b mM | 
10 | B10 | 0.98^a | 0.85 | 0.17 | 0.21 | 0.12 | 0.15 |  |  | 
11 | B11 | 1.0^a | 0.92 | 0.95 | 0.93 | 0.87 | 0.89 | further improved the fraction of aminolysis | 1.7^c mM | 
12 | B12 | 0.97^a | 0.80 | 0.83 | 0.83 | 0.81 | 0.81 | further improved the fraction of aminolysis | 9.1^b mM | 
13 | B13 | 0.99^a | 0.92 | 0.94 | 0.72 | 0.52 | 0.91 | further improved the fraction of aminolysis | 1.0^b mM | 
